The experiment has as its target T1, Ornithine decarboxylase (human, UniProt P11926 1-461).
T1 construct: Ornithine decarboxylase, Homo sapiens, full length; Cloned into pGEX-6p-1; The complex was purified and crystallised with the co-factor PLP (1 mM); One ODC monomer stands in the complex with cAZ1; also called ODC; human ODC; source: E. coli BL21 (DE3), purified (glutathione Sepharose 4B, PreScission cleavage, Superdex-200)
T1 sequence (looked up): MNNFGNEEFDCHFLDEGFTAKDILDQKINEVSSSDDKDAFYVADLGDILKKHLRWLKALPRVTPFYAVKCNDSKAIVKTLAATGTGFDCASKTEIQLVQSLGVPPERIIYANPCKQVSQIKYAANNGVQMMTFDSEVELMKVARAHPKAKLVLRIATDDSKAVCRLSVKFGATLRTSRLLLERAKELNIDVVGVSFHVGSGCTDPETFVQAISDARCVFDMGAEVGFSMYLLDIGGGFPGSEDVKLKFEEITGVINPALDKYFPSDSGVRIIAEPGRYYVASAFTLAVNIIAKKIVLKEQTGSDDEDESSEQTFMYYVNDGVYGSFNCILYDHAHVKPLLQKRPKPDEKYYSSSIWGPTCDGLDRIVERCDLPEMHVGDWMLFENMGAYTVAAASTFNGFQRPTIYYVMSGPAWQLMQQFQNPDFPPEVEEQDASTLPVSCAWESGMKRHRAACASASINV
As to the kind of experiment: crystal structure; purified ODC and cAZ1 mixed on ice for 1 hour with cAZ1 in excess; complex purified on Superdex-200 in 20 mM Tris pH 8.5, 150 mM NaCl, 2 mM DTT, 1 mM PLP; hanging-drop crystals at 15 °C; 3.2 Å. The settings on record: both partners purified.

B1: N-terminally truncated Antizyme1 (residues 69-228) (domain or fragment)
chain: not shown
notes: Antizyme1 (AZ1), Homo sapiens, N-terminally truncated, residues 69-228; Cloned into pGEX-6p-1; also called cAZ1; AZ1; source: E. coli BL21 (DE3), purified (glutathione Sepharose 4B, PreScission cleavage, Superdex-200)
Turning to B1, the binding result is “binds”.

Values taken from PMC4595762, “Structural basis of Ornithine Decarboxylase inactivation and accelerated degradation by polyamine sensor Antizyme1” (Scientific Reports, 2015).
